The values that follow come from patent US5420243.

Ends that are not written are not given here.

Assay [1] addresses L6 rat muscle myoblast TGF-β receptor (rat). In words: competition against 125I-TGF-β2 on L6 rat muscle myoblast TGF-β receptor (Example 5).
The target is the same in assay [2]. In words: competition against 125I-TGF-β2 on L6 rat muscle myoblasts.
The target is the same in assay [3]. The assay can be described thus: competition against 125I-TGF-β2 on L6 rat muscle myoblasts; called apparent dissociation constant of approximately 3 µM in paragraph 85.

Molecule TGF-β2 (from UniProt P61812) (ligand) displayed an ED50 in assay [1] of 0.06 nM.
CLRPLYIDFKRDLGWK (also: disulfide-linked dimer) [TGF-β2 16-31 dimer] registered an ED50 in assay [2] of 30 µM.
For the molecule CLRPLYIDFKRDLGWKWIHEPKGYNANFCAGA (also: dimer linked by a single disulfide bond, Cys pairing not settled) [TGF-β2 16-47 dimer], the ED50 in assay [3] is 3 µM.
CLRPLYIDFKRDLGWKWIHEPKGYNANFCAGA [TGF-β2 16-47 monomer]: the ED50 in assay [2] came to 30 µM.
